From PMC8748748

Columns and labels:
Assay in all cases: potentiometry
[1] = molecular target: His18 (position 18, ANFLVHS----)
[2] = molecular target: Lys1 (position 1, -----KCNTAT)
[3] = molecular target: Nterm1 (position 1, -----KCNTAT)
[4] = molecular target: Tyr37 (position 37, VGSNTY-----)
[5] = molecular target: His18 (position 18, …)
[6] = 298 K, 40 mM SDS (stated as the ionic strength), none (ligand 0.5 mM; electrode calibrated by titrating HClO4 with NaOH), metal-free peptide in SDS, helical-like structure by CD
[7] = not stated for the quoted titrations (the Figure 4 competition plot caption gives T = 298 K), metal-free peptide in water, cited from earlier work
[8] = 298 K, 40 mM SDS (stated as the ionic strength), none (ligand 0.5 mM, Cu(II):ligand 0.9:1), Cu(II)-bound peptide (1:1 complex) in SDS, the titrating residue is not coordinated to the metal

Protein | pKa [1, 6] | pKa [1, 7] | pKa [2, 8] | pKa [2, 6] | pKa [2, 7] | pKa [3, 8] | pKa [3, 6] | pKa [3, 7] | pKa [4, 8] | pKa [4, 6] | pKa [4, 7] | pKa [5, 6] | pKa [5, 7]
KCNTATCATQRLANFLVHS [Amylin(1-19), membrane-disrupting fragment of human amylin (IAPP) (Homo sapiens)] | 7.28 | 6.04 | 10.05 | 9.88 | 10.83 | 8.98 | 8.18 | 7.97 |  |  |  |  | 
KCNTATCATQRLANFLVRSSNNLGPVLPPTNVGSNTY [Rat amylin (islet amyloid polypeptide, IAPP) (Rattus norvegicus)] |  |  | 10.04 | 10.44 | 10.20 |  | 7.85 | 7.13 | 9.61 | 10.08 | 9.49 |  | 
KCNTATCATQRLANFLVHSSNNFGPILPPTNVGSNTY |  |  | 10.89 | 10.92 | 10.32 |  | 8.39 | 7.53 | 10.28 | 9.93 | 9.67 | 6.76 | 5.79
KCNTATCATQRLANFLVHSSNNFGPILPPTNVGSNTY [Ac-pramlintide (N-acetylated pramlintide) (Homo sapiens (synthetic analogue); A25P;S28P;S29P)] |  |  |  | 10.50 |  |  |  |  |  | 10.01 |  | 7.57 | 
